Measured values taken from PMC3336217, “^111In-Labeled Cystine-Knot Peptides Based on the Agouti-Related Protein for Targeting Tumor Angiogenesis” (Journal of Biomedicine and Biotechnology, 2012).
Positions of bridges follow the written chain, without caps; N, C: chain ends. Residues, ends and D or L forms follow the SMILES beside them. *: point of attachment. DOTA = O=C(O)CN1CCN(CC(=O)O)CCN(CC(=O)*)CCN(CC(=O)O)CC1

Columns and labels:
[1] = tested on: nude mice bearing subcutaneous U87MG human glioblastoma xenografts; experiment: in vivo; settings: female, athymic nu/nu, mouse, iv, 2 h
Procedure: (§1) All animal studies were carried out in compliance with federal and local institutional rules for animal experimentation. Approximately, 10^7 U87MG cells were suspended in PBS and subcutaneously implanted in the left shoulders of female athymic nu/nu mice. Tumors were allowed to grow to a size of 0.5 cm (2-3 weeks) before imaging experiments were performed. For biodistribution studies, U87MG tumor-bearing mice (n = 3 for each group) were injected with ^111In-DOTA-AgRP-7C (0.259–0.37 MBq, […]) or ^111In-DOTA-AgRP-6E (0.296–0.444 MBq, 8–12 μCi) via the tail vein and sacrificed at different time points (0.5, 2, 24, and 48 h) after injection (p.i.). Tumor and normal tissues of interest were removed and weighed, and their radioactivity was measured with a γ-counter. Radioactivity uptake was expressed as the percent injected dose per gram of tissue (%ID/g). To test the in vivo αvβ3 integrin targeting specificity of the probe, U87MG tumor-bearing mice (n = 3 for each group) were injected via the tail vein with a mixture of ^111In-DOTA-AgRP-7C (0.259–0.37 MBq, 7–10 μCi) and 330 μg of c(RGDyK). The mice were sacrificed at 2 h p.i. and the biodistribution of the radiolabeled peptide was measured as above.
(§2) Quantitative data were expressed as mean ± SD. Means were compared using the Student t-test. A 95% confidence level was chosen to determine the significance between groups, with P values of less than 0.05 indicating significant differences.

in vivo = settings: female, athymic nu/nu, mouse, iv, total radioactivity
Procedure: as §1, §2

in vitro = in vitro ADME; settings: mouse, serum
Procedure: Radiolabeled AgRP* peptides were incubated in 0.01 M PBS (pH 7.4) at 37°C for 24 h and monitored for degradation by HPLC. Stability was also tested by incubating 0.74 MBq (20 μCi) ^111In-DOTA-AgRP-7C or ^111In-DOTA-AgRP-6E in 400 μL of mouse serum at 37°C for 2 h. Afterward, the mixture was re-suspended in 0.5 mL of DMF containing 5 μL of Triton X-100 and centrifuged at 16,000 g for 2 min. The supernatant, which contained >95% of the starting radioactivity, was filtered using a 10 K NanoSep device (Pall Corporation, East Hills, NY, USA). Greater than 99% of the radioactive material passed through this filter. The samples were analyzed by radio-HPLC, and the percentage of intact peptide was determined by quantifying peaks corresponding to the intact peptide and to the degradation products.
Figure 1 Stability analysis of ^111In-DOTA-AgRP-7C (a) and (b), and ^111In-DOTA-AgRP-6E (c) and (d) in PBS and mouse serum. The two radiopeptides were incubated with PBS for 24 h at […], and mouse serum for 2 h at 37°C.

## CC(C)C[C@@H]1NC(=O)[C@@H]2CSSC[C@@H]3NC(=O)[C@H]([C@@H](C)O)NC(=O)[C@H](C)NC(=O)[C@H](C)NC(=O)[C@@H]4CCCN4C(=O)[C@H](CC(=O)O)NC(=O)[C@H](CSSC[C@H](NC(=O)CNC(=O)CN4CCN(CC(=O)O)CCN(CC(=O)O)CCN(CC(=O)O)CC4)C(=O)N[C@@H](C(C)C)C(=O)N[C@@H](CCCNC(=N)N)C(=O)N[C@@H](CC(C)C)C(=O)N[C@@H](Cc4c[nH]cn4)C(=O)N[C@@H](CCC(=O)O)C(=O)N[C@@H](CO)C(=O)N2)NC(=O)[C@H](CSSC[C@@H](C(=O)N[C@@H](CCCNC(=N)N)C(=O)O)NC(=O)[C@H](Cc2ccc(O)cc2)NC(=O)[C@@H]2CSSC[C@H](NC(=O)[C@H](Cc4ccc(O)cc4)NC3=O)C(=O)N[C@@H](Cc3ccc(O)cc3)C(=O)NCC(=O)N[C@@H](CCCNC(=N)N)C(=O)NCC(=O)N[C@@H](CC(=O)O)C(=O)N[C@@H](CC(N)=O)C(=O)N[C@@H](CC(=O)O)C(=O)N[C@@H](CC(C)C)C(=O)N[C@@H](CCCNC(=N)N)C(=O)N2)NC(=O)[C@@H]2CCCN2C(=O)[C@H](C(C)C)NC(=O)[C@H](CCC(N)=O)NC(=O)[C@H](CCC(N)=O)NC(=O)CNC1=O [111In-DOTA-AgRP-7C, metal not drawn] ({DOTA}-GCVRLHESCLGQQVPCCDPAATCYCYGRGDNDLRCYCR-OH; disulfide 2-17, 9-23, 16-37, 25-35)
[1]
  Intestine uptake: 0.60 ± 0.13 %ID/g
  Liver uptake: 0.43 ± 0.16 %ID/g
  Lung uptake: 0.86 ± 0.20 %ID/g
  Spleen uptake: 0.88 ± 0.21 %ID/g
  Tumor uptake: 2.35 ± 0.36 %ID/g
  Tumor-to-muscle ratio: 39.83 ± 9.16
In vivo; Blood uptake
  tissue uptake at 0.5 h: 0.68 ± 0.26 %ID/g
  tissue uptake at 2 h: 0.1 ± 0.02 %ID/g
  tissue uptake at 24 h: 0.01 %ID/g
  tissue uptake at 48 h: 0.01 %ID/g
In vivo; Bone uptake
  tissue uptake at 0.5 h: 1.41 ± 0.36 %ID/g
  tissue uptake at 2 h: 0.63 ± 0.05 %ID/g
  tissue uptake at 24 h: 0.39 ± 0.07 %ID/g
  tissue uptake at 48 h: 0.24 ± 0.05 %ID/g
In vivo; Brain uptake
  tissue uptake at 0.5 h: 0.04 ± 0.02 %ID/g
  tissue uptake at 2 h: 0.02 ± 0.01 %ID/g
  tissue uptake at 24 h: 0.01 %ID/g
  tissue uptake at 48 h: 0.01 ± 0.01 %ID/g
In vivo; Heart uptake
  tissue uptake at 0.5 h: 0.45 ± 0.16 %ID/g
  tissue uptake at 2 h: 0.12 ± 0.02 %ID/g
  tissue uptake at 24 h: 0.04 ± 0.01 %ID/g
  tissue uptake at 48 h: 0.03 %ID/g
In vivo; Intestine uptake
  tissue uptake at 0.5 h: 2.02 ± 0.71 %ID/g
  tissue uptake at 24 h: 0.29 ± 0.02 %ID/g
  tissue uptake at 48 h: 0.22 ± 0.03 %ID/g
In vivo; Kidneys uptake
  tissue uptake at 0.5 h: 33.9 ± 8.35 %ID/g
  tissue uptake at 2 h: 30.6 ± 4.62 %ID/g
  tissue uptake at 24 h: 19.1 ± 2.17 %ID/g
  tissue uptake at 48 h: 8.47 ± 0.04 %ID/g
In vivo; Liver uptake
  tissue uptake at 0.5 h: 0.8 ± 0.19 %ID/g
  tissue uptake at 24 h: 0.24 ± 0.03 %ID/g
  tissue uptake at 48 h: 0.19 ± 0.03 %ID/g
In vivo; Lung uptake
  tissue uptake at 0.5 h: 2.11 ± 0.65 %ID/g
  tissue uptake at 24 h: 0.26 ± 0.09 %ID/g
  tissue uptake at 48 h: 0.12 ± 0.02 %ID/g
In vivo; Muscle uptake
  tissue uptake at 0.5 h: 0.3 ± 0.13 %ID/g
  tissue uptake at 2 h: 0.06 ± 0.01 %ID/g
  tissue uptake at 24 h: 0.04 ± 0.01 %ID/g
  tissue uptake at 48 h: 0.02 ± 0.01 %ID/g
In vivo; Pancreas uptake
  tissue uptake at 0.5 h: 0.42 ± 0.17 %ID/g
  tissue uptake at 2 h: 0.13 ± 0.03 %ID/g
  tissue uptake at 24 h: 0.09 ± 0.01 %ID/g
  tissue uptake at 48 h: 0.05 ± 0.01 %ID/g
In vivo; Spleen uptake
  tissue uptake at 0.5 h: 1.7 ± 0.62 %ID/g
  tissue uptake at 24 h: 0.58 ± 0.09 %ID/g
  tissue uptake at 48 h: 0.46 ± 0.1 %ID/g
In vivo; Stomach uptake
  tissue uptake at 0.5 h: 2.17 ± 0.49 %ID/g
  tissue uptake at 24 h: 0.21 ± 0.01 %ID/g
  tissue uptake at 48 h: 0.14 ± 0.02 %ID/g
In vivo; Tumor uptake
  tissue uptake at 0.5 h: 5.74 ± 1.6 %ID/g
  tissue uptake at 24 h: 1.29 ± 0.02 %ID/g
  tissue uptake at 48 h: 0.76 ± 0.17 %ID/g
In vivo; Tumor-to-blood ratio
  tissue to tissue ratio at 0.5 h: 8.9 ± 3.09
  tissue to tissue ratio at 2 h: 25.8 ± 10.5
  tissue to tissue ratio at 24 h: 128 ± 30.5
  tissue to tissue ratio at 48 h: 144 ± 36.3
In vivo; Tumor-to-muscle ratio
  tissue to tissue ratio at 0.5 h: 20.6 ± 6.4
  tissue to tissue ratio at 24 h: 37.7 ± 9.81
  tissue to tissue ratio at 48 h: 41.1 ± 8.62
In vitro
  remaining at 2 h, 1.85 MBq/mL: > 95%
